Consider four molecules from patent publication US20170240645A1 (Genentech, published 2017).

The target of assay [1] is T1, endothelin B receptor (ETBR) (UniProt P24530 27-442, limits assumed).
T1 sequence (looked up): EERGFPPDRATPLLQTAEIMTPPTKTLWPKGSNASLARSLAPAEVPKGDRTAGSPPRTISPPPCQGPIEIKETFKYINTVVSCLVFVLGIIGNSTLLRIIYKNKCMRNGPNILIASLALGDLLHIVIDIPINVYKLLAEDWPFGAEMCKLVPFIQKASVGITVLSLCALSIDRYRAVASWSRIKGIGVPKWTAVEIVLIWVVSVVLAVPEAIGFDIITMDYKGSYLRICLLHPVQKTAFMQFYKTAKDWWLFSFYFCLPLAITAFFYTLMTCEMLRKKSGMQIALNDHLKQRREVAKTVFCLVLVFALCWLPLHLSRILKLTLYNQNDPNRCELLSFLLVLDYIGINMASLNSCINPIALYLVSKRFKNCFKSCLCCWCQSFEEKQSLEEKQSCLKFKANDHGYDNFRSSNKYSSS
The assay is described as follows: cell-based or functional assay.

For assay [2], the target named is T2, human PMEL17 (human, UniProt P40967 25-661).
T2 construct: Untagged PMEL17 as it occurs on melanoma cell lines, normal human melanocytes, PC3 cells stably expressing PMEL17 cDNA, and in human tissue sections; also called Melanocyte protein PMEL17
T2 sequence: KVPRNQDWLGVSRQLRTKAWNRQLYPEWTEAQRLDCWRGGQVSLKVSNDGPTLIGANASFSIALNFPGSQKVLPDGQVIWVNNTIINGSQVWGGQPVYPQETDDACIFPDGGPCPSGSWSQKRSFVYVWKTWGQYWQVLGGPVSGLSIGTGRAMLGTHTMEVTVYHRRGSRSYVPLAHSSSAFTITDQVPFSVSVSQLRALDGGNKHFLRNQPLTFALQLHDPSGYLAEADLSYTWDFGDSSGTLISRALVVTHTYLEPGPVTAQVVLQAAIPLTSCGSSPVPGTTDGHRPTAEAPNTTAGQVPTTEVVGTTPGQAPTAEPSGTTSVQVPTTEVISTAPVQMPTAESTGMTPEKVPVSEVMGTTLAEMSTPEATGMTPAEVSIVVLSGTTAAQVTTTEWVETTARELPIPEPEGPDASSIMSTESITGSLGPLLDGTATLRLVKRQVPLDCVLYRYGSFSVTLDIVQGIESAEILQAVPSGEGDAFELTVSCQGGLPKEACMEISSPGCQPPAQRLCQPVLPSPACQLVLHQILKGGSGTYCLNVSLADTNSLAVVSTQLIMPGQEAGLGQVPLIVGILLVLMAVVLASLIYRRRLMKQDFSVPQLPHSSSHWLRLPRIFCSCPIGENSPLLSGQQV
Kind of assay: flow cytometry on parental and in vivo-derived resistant UACC-257X2.2 melanoma cells, detected with anti-human Alexa 488 conjugate; control peak is secondary antibody only. The procedure: Expression of ETBR and PMEL17 on the surface of the in vivo- and in vitro-derived resistant UACC-257X2.2 cells and the parental UACC-257X2.2 cells was then determined by FACS. Cells were stained with anti-ETBR antibody (hu5E9.v1 or ch5E9) or with anti-PMEL17 antibody (ch17A9), followed by an anti-human Alexa 488 antibody conjugate. […] Surface expression of PMEL17 was unchanged in the resistant cells as compared to the parental cells.

The target in assay [3] is T2, human PMEL17. The assay is described as follows: FACS screen of hybridoma clones.

B1: anti-ETBR-PNU (ch5E9 conjugated to MC-PNU-159682 through a non-cleavable linker) (antibody, human IgG1, kappa, V domains shown)
VH: QVQLLQSGAELARPGASVKLSCKASGYTFTSYWMQWVKQRPGQGLEWIGTIYPGDGDTSYAQKFKGKATLTTDKYSSTAYMQLSSLASEDSAVYYCARWGYAYDIDNWGQGTLVTVSS
VL: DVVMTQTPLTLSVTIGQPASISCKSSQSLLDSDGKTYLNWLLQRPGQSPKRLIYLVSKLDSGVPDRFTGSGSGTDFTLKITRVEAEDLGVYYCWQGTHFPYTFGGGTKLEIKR
modifications: MC-PNU-159682 on reduced cysteine residues of the antibody
With B1, in assay [1], the “EC50 of cell survival (CellTiter-Glo), in vitro derived resistant UACC-257X2.2 cells” value was found to be 0.0146 µg/mL; the “EC50 of cell survival (CellTiter-Glo), in vivo derived resistant UACC-257X2.2 cells” value came out at 0.0143 µg/mL; the “EC50 of cell survival (CellTiter-Glo), parental UACC-257X2.2 cells” value was found to be 0.0042 µg/mL.

B2: ch17A9 (antibody, human IgG1, kappa, V domains shown)
VH: EVQLQQSGPELVKPGASMKISCKSSGYSFTRYTMNWVKQSHGKNLEWIGVINPYNGGTVYNQKFKGKATLTVDKSSSTAYMELLSLTSEDSAVYYCARTDYDGYAMDYWGQGTSVTVSS
VL: DVQITQSPSYLAASPGETITINCRATKSISKYLAWYQEQPGKTNNLLIYSGSTLQSGIPSRFSGSGSGTDFTLTISSLEPEDFAMYYCQQHNEYPYTFGSGTKLEIKR
notes: also called chimeric 17A9
For the molecule B2, the binding result with human PMEL17 [2] is given as “binds”.

B3: 8G3 (antibody, V domains shown)
VH: EVQLQQSGPELVKPGASMRISCKASGYSFTGYTMNWVKQSHGKNLEWIGVYNPYNGGTVYNQKFKGKATLTVDKSSSTTYMELLSLTSEDSAVYYCARTDSGGYAMDCWGQGTSVTVSS
VL: DVQITQSPSYLDASPGETITINCRASKTISKYLAWYQEKPGKTNKLLIYSGSTLQSGIPSRFSGSGSGTDFTLTISSLEPEDFAMYYCQQHNEYPYTFGSGTKLEIK
notes: Mouse monoclonal antibody from a hybridoma
Turning to B3, in the assay with human PMEL17 [3], the binding result is given as “binds”.

B4: 15F2 (antibody, V domains shown)
VH: QVQLKESGPGLVAPSQSLSITCTVSGFSLTKYGVHWVRQPPGKGLEWLGVIWAGGNTNYNSALMSRLSINKDNSKSQVFLKMNSLQTDDTAMYYCATFDVWGAGTTVTVSS
VL: DIVMTQAAPSVPVTPGESVSISCRSSKSLLHSNGNTFLYWFLQRPGQSPQLLIYRMSNLVSGVPDRFSGSGSGTAFTLRISRVEAEDVGFYYCMQHLEYPYTFGGGTKLELK
notes: as for B3
Turning to B4, in the assay with human PMEL17 [3], the binding result is “binds”.
